Measurements reported in patent US20060026702A1, “Phosphoinositide 3-kinase mediated inhibition of GPCRs” (DUKE UNIVERSITY, priority 2002, published 2006).

Key:
β2AR-YFP = molecular target: T1, β2AR-YFP (Homo sapiens, UniProt P07550); assay: Endocytosis of β2AR-YFP in live cells by confocal microscopy; format: cell-based; details: 10 μM isoproterenol, 10 min; HEAT co-expressed
T1 construct: expressed in transfected cells; host or cells: HEK 293
Protocol: Confocal Microscopy—Confocal microscopy was performed as previously described. […] Cells were split into 35 mm^2 dishes with glass bottoms for observation using a Zeiss LSM-510 confocal microscope. […] For analyses of the HEAT domain, HEK 293 cells were transfected with the plasmids containing cDNAs encoding either the β2AR-YFP (2 μg) or β2AR-YFP (2 μg) and HEAT domain (4 μg). Cells were plated onto glass bottom dishes for observation in the confocal microscope. […] Cells were permeablized with 0.1% Triton X-100 in phosphate-buffered saline for 20 min, incubated in 1% BSA in phosphate-buffered saline for 1 hr. Cells were washed with 1× phosphate-buffered saline and incubated with anti-HA or anti-FLAG monoclonal antibody (1:250) with 1% BSA in 1× phosphate-buffered saline for 1 hr. Cells were washed and incubated with goat anti-mouse IgG conjugated with Texas Red (1:500) (Molecular Probes) for 1 hr. Samples were visualized using single sequential line excitation filters at 488 and 568 nm and emission filter sets at 505-550 nm for GFP detection and 585 for Texas Red detection.
Prior to agonist, the distribution of β2AR-YFP was found distinctly at the plasma membrane (FIG. 11B, panel 1). […] With time, this was followed by the formation of cytoplasmic aggregates (FIG. 11B, panel 3), and then with the complete loss of membrane fluorescence (FIG. 11B, panels 3 and 7) (arrowheads).

βARK1 = βARK1 recruitment to the membrane (immunoblot of membrane fraction); format: cell-based; details: 10 μM isoproterenol; HEAT 4 μg
Protocol: Cytosolic and Membrane Fractionation—Cell monolayers were scraped in 1 ml of buffer containing 25 mM Tris-HCl (pH 7.5), 5 mM EDTA, 5 mM EGTA, 1 mM phenylmethylsulfonyl fluoride, 2 μg/ml each of leupeptin and aprotinin and disrupted further by using Dounce homogenizer. Intact cells and nuclei were removed by-centrifugation at 1,000×g for 5 min. The collected supernatant was further subject to a centrifugation at 38,000×g for 25 min. The pellet was resuspended in lysis buffer (1% Nonidet P-40, 10% glycerol, 137 mM NaCl, 20 mM Tris-Cl (ph 7.4), 1 mM phenylmethylsulfonyl fluoride, 20 mM NaF, 1 mM sodium pyrophosphate, 1 mM sodium orthovanadate and 2 μg/ml each of aprotinin and leupeptin) and used as membrane fraction and the supernatant was diluted in lysis buffer and used as the cytosolic fraction. Heart samples also underwent through similar procedures to obtain membrane and cytosolic fractions. Purity of the membrane fraction preparation was confirmed by measuring enzyme activity of the membrane marker enzyme K^+-stimulated p-nitrophenylphosphatase (membrane fraction: 9.4 μmol/mg protein per min, cytosol: 2.6 μmol/mg of protein/min). […]
Cytosolic and membrane fractions were prepared and analyzed for βARK1 associated PI3K activity. […]

B1: HEAT: 197 amino acid HEAT domain of PI3Kγ, FLAG epitope-tagged (SEQ ID NO: 2), overexpressed in cells (protein, listed as Homo sapiens)
chain: MDYKDDDDKHPIALPKHQPTPDDRVRAEMPNQLRKQLEAIIATDTAEDKELLWHFRYESLKHPKAYPKLFSSVKWGQQEIVAKTYQLLARREVWDQSALDVGLTMQLLDCNFSDENVRAIAVQKLESLEDDDVLHYLLQLVQAVKFEPYHDSALARFLLKRGLRNKRIGHFLFWFLRSEIAQSRHYQQRFAVILEAYLRGCGTA
modifications: FLAG tag
- receptor endocytosis (redistribution of β2AR-YFP) (β2AR-YFP): completely inhibited
- membrane recruitment of βARK1 following isoproterenol (βARK1): no effect
